Test results published in PMC10695398 (PLOS Pathogens, 2023).

Target: T1, His6-tagged STAT3, bacterially derived (UniProt P40763 1-770)
T1 construct: also called His6-STAT3; His6-St3; source: E. coli BL21(DE3), purified (Ni-NTA, eluted with imidazole)
Assay: pull-down
Settings: both partners purified

T1 sequence (P40763 whole entry): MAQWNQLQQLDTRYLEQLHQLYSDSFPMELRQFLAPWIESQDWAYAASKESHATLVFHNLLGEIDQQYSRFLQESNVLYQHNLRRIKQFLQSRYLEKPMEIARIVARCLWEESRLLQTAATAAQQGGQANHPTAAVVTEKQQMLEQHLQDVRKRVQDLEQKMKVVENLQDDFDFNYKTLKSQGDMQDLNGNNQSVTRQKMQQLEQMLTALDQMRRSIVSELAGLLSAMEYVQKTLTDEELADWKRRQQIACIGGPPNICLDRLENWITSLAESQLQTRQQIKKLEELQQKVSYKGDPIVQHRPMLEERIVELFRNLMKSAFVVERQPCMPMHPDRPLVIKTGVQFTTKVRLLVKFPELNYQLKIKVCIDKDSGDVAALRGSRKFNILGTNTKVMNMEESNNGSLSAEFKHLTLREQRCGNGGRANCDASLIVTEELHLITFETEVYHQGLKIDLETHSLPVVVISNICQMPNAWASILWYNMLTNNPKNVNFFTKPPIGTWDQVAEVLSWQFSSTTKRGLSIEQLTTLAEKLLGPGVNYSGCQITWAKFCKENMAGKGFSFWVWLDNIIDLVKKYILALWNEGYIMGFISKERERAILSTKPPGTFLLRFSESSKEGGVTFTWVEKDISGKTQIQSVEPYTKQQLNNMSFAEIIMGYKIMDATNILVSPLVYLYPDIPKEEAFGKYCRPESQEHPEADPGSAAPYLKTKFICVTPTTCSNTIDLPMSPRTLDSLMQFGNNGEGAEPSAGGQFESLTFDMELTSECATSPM

B1: GST-tagged vIRF-1, bacterially derived (natural protein)
chain: MDPGQRPNPFGAPGAIPKKPCLSQGSPGTSGSGAPCDEPSRSESPGEGPSGTGGSAAAGDITRQAVVAAITEWSRTRQLRISTGASEGKASIKDWIVCQVNSGKFPGVEWEDEERTRFRIPVTPLADPCFEWRRDGELGVVYIRERGNMPVDASFKGTRGRRRMLAALRRTRGLQEIGKGISQDGHHFLVFRVRKPEEEQCVECGVVAGAVHDFNNMARLLQEGFFSPGQCLPGEIVTPVPSCTTAEGQEAVIDWGRLFIRMYYNGEQVHELLTTSQSGCRISSALRRDPAVHYCAVGSPGQVWLPNVPNLACEIAKRELCDTLDACAKGILLTSSCNGIFCVCYHNGPVHFIGNTVPPDSGPLLLPQGKPTRIFNPNTFLVGLANSPLPAPSHVTCPLVKLWLGKPVAVGKLEPHAPSPRDFAARCSNFSDACVVLEIMPKPLWDAMQ
notes: also called GST-fused vIRF-1; vIRF-1-GST
**Q.** Does B1 bind?
**A.** binds
